{
  "source": "paper PMC2715241",
  "about": "(Nucleic Acids Research, 2009)",
  "proteins": {"B1": {"name": "histidine tagged MutL–NTD (domain or fragment, E. coli, UniProt P23367 1-375, looked up)", "chain": "MPIQVLPPQLANQIAAGEVVERPASVVKELVENSLDAGATRIDIDIERGGAKLIRIRDNGCGIKKDELALALARHATSKIASLDDLEAIISLGFRGEALASISSVSRLTLTSRTAEQQEAWQAYAEGRDMNVTVKPAAHPVGTTLEVLDLFYNTPARRKFLRTEKTEFNHIDEIIRRIALARFDVTINLSHNGKIVRQYRAVPEGGQKERRLGAICGTAFLEQALAIEWQHGDLTLRGWVADPNHTTPALAEIQYCYVNGRMMRDRLINHAIRQACEDKLGADQQPAFVLYLEIDPHQVDVNVHPAKHEVRFHQSRLVHDFIYQGVLSVLQQQLETPLPLDDEPQPAPRSIPENRVAAGRNHFAEPAAREPVAPR"}},
  "biological_target": "the molecule itself",
  "test": "AUC",
  "data": [
    {"protein": "B1", "values": [
      {"measurement": "stoichiometry N", "result": 2}
    ]}
  ]
}
